Data taken from paper PMC2887044 (Journal of molecular biology, 2010).
Read-outs that look alike come from different tables or passages of the source.

Experiments:
Test in all cases: FRET or BRET
[1] = biological target: the molecule itself
[2] = biological target: the molecule itself; remark: listed apart in the source
[3] = biological target: the molecule itself; remark: listed apart in the source

B1: Alexa-labelled apoC-II S61C (Alexa-488 apoC-II; Alexa-594 apoC-II) (natural protein, human, UniProt P02655 23-101, looked up)
chain: TQQPQQDEMPSPTFLTQVKESLSSYWESAKTAAQNLYEKTYLPAVDEKLRDLYSKSTAAMCTYTGIFTDQVLSVLKGEE
modifications: conjugated with Alexa dyes (Alexa 488 C5 maleimide or Alexa 594 C5 maleimide)
[1]
  koff: 0.161 s⁻¹
[2]
  koff: 0.0125 s⁻¹
[3]
  koff: 0.00639 s⁻¹
